Consider 1 substance from publication PMC8523820.

The target of assay [1] is eGFP-ASIC1a (rat ASIC1a subunit fused to eGFP) (rat) (UniProt P55926).
The target is the same in assay [2]. This is another data set of the same source.
Assay [3] addresses human ASIC1a channel (human (endogenous in HEK293)) (UniProt P78348).
The target in assay [4] is mouse ASIC1a channel (mouse (endogenous in C57BL/6 striatal neurons)) (UniProt Q6NXK8).
Assay [5] deals with human ASIC1a channel (human (endogenous in HEK293)) (UniProt P78348). The source holds these as a separate data set.
The target of assay [6] is mouse ASIC1a channel (mouse (endogenous in C57BL/6 striatal neurons)) (UniProt Q6NXK8). This is another data set of the same source.

UniProt P55926, sequence (P55926 whole entry, the tested form may be a part): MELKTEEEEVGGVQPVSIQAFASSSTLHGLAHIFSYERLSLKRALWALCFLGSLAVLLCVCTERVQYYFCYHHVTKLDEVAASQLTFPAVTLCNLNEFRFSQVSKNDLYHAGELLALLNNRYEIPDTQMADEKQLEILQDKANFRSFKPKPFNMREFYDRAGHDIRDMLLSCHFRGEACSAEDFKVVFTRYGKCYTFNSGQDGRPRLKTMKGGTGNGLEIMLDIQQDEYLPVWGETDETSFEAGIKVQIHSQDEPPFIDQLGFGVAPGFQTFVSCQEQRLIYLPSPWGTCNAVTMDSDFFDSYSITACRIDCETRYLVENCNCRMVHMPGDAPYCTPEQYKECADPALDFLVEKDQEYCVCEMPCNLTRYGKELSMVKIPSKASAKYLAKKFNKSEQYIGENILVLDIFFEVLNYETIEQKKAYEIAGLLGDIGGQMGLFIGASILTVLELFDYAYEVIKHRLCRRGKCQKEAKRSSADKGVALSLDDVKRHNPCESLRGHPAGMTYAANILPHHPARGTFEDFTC
UniProt P78348, sequence (P78348 whole entry): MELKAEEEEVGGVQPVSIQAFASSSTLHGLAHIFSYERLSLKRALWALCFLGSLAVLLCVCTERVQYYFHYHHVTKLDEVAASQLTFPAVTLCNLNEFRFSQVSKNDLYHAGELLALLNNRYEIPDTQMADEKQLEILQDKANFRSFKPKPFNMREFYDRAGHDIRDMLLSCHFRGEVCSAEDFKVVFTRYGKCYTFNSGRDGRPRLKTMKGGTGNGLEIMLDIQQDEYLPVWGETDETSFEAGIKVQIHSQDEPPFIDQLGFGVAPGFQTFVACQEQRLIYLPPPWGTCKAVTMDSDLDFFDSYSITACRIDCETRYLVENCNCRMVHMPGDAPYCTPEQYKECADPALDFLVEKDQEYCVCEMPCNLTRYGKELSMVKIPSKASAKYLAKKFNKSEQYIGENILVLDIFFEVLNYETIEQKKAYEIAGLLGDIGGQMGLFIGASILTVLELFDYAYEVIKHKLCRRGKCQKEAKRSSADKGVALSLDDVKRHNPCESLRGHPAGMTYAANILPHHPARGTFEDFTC
UniProt Q6NXK8, sequence (Q6NXK8 whole entry): as the sequence (P55926 whole entry, the tested form may be a part) above, with S476N counted along it

MitTx (complex) showed a pERK/tERK relative to untreated eASICx1 cells, HEK cells transfected with eGFP-ASIC1a (x1), pre-incubated with Pctx-1, then MitTx (fold of eASICx1 levels) in assay [1] of 1.1. In assay [2], the pERK/tERK relative to untreated eASICx1 cells, Western blot of HEK cells transfected with eGFP-ASIC1a (x1) and treated with MitTx (fold of eASICx1 levels) is 3.42; the pERK/tERK relative to untreated eASICx1 cells, Western blot of HEK cells transfected with eGFP-ASIC1a (x3) and treated with MitTx (fold of eASICx1 levels) stood at 9.96. Moreover, in assay [3], the pERK/tERK relative to control, Western blot of lysates of HEK cells treated with 20 nM MitTx for 2 to 10 min (7.98 at 2 min, 10.90 at 10 min) (fold of control) is 10.9. The pERK/tERK relative to control, Western blot of lysates of mouse striatal neurons treated with 20 nM MitTx for 2 min (fold of control) in assay [4] was 5.39. Further, in assay [5], the pCaMKII/Tub relative to control, HEK cells pre-incubated with 20 nM Pctx-1 for 30 min, then MitTx for 2 min (fold of control) is 1.17; the pCaMKII/Tub relative to control, Western blot of lysates of HEK cells treated with 20 nM MitTx for 2 to 10 min (8.88 at 2 min, 10.76 at 10 min) (fold of control) was 10.8; the pERK/tERK relative to control, HEK cells pre-incubated with 20 nM Pctx-1 for 30 min, then MitTx for 2 to 10 min (1.18 at 2 min, 1.42 at 10 min) (fold of control) amounted to 1.42. Besides, the pCaMKII/Tub relative to control, Western blot of lysates of mouse striatal neurons treated with 20 nM MitTx for 2 min (fold of control) in assay [6] was determined as 6.37.
